Reference: patent US20260185163A1 (Dana-Farber, published 2026)
Ends that are not written are not given here. * marks the point of attachment. FITC = O=C1OC2(c3ccc(O)cc3Oc3cc(O)ccc32)c2ccc(NC(=S)*)cc21

Experiments:
Assay in all cases: fluorescence polarization; 1 nM FITC-MLL1 4-43(C-A) probe titrated with StrepII-Avi-TEV-Menin; one site total fit; mean±S.D., N=3
[1] = biological target: T1, StrepII-Avi-TEV-Menin M327I (recombinant mutant human Menin) (human, UniProt O00255 1-610)
T1 construct: The mutant plasmid was made from the wild-type StrepII-Avi-TEV Menin construct; also called M327I-mutant Menin; M327I Menin
T1 sequence: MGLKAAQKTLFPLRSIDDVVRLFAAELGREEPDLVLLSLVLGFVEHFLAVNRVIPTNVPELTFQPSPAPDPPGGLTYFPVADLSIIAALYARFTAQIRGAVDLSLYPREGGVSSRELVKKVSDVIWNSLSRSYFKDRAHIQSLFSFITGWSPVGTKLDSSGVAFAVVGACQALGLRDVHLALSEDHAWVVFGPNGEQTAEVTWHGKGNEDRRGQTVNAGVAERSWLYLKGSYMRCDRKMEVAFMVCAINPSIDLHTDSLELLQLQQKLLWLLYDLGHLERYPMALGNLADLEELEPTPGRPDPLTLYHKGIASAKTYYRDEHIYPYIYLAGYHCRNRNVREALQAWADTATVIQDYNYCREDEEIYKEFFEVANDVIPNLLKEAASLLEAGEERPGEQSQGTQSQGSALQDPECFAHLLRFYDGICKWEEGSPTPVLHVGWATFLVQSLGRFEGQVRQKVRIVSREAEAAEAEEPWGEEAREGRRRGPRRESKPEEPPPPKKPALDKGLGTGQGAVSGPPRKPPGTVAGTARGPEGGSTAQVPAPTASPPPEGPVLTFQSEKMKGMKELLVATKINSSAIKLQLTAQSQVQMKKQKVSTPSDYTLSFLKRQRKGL
Procedure: (§1) To derive the FITC-MLL1₄₋₄₃(C-A) peptide Kd. FITC-conjugated MLL1₄₋₄₃(C-A) peptide probe at final concentration of 1 nM was mixed with increasing concentration of purified StrepII-Avi-TEV-Menin (5 μM final top concentration, 2-fold, 23-point dilution and a buffer control) in an assay buffer (50 mM Tris pH 7.5, 200 mM NaCl, 0.1% Pluronic F-68 solution (Sigma)) in 384-well microplates at 15 μL assay volume (Corning, 4514) and incubated for 30 min at room temperature (RT). For all assays change in fluorescence polarization was monitored using a PHERAstar FS microplate reader (BMG Labtech). […] In competitive titration experiments Menin proteins (1 nM WT, 1 nM M327I or 3 nM for T349M) and 1 nM FITC-conjugated MLL1₄₋₄₃(C-A) peptide probe were incubated in an assay buffer for 30 min. SNDX-5613 was then dispensed to 384-well microplate (Corning, 4514) containing 15 μL of the assay mix using D300e Digital Dispenser (HP) and normalized to 1% DMSO followed by 90 min incubation. The fluorescence polarization was monitored by PHERAstar FS microplate reader (BMG Labtech). The MLL1₄₋₄₃(WT) and MLL1₄₋₄₃(C-A) peptide titrations were performed by addition of 7.5 μL of 2-fold 23-point serial dilution into 7.5 μL of assay mix with the final concentrations of 1 nM FITC-conjugated MLL₄₋₄₃ peptide probe, 1 nM WT Menin or 1 nM Menin M327I or 3 nM Menin T349M in assay buffer. The fluorescence polarization was monitored by PHERAstar FS microplate reader (BMG Labtech). For analysis of the competitive titration experiments the last 10 cycles of the data were averaged to obtain technical replicates. Data from three independent replicates (n=3) was plotted and IC₅₀ values estimated using variable slope equation in GraphPad Prism 9. The calculation of Kᵢ values was performed using Kᵢ calculator available at websites.umich.edu/˜shaomengwanglab/software/calc_ki/index.html²³.

[2] = biological target: T2, StrepII-Avi-TEV-Menin (wild-type human Menin, recombinant, E. coli) (human, UniProt O00255 1-610)
T2 construct: also called WT Menin; WT-Menin
T2 sequence: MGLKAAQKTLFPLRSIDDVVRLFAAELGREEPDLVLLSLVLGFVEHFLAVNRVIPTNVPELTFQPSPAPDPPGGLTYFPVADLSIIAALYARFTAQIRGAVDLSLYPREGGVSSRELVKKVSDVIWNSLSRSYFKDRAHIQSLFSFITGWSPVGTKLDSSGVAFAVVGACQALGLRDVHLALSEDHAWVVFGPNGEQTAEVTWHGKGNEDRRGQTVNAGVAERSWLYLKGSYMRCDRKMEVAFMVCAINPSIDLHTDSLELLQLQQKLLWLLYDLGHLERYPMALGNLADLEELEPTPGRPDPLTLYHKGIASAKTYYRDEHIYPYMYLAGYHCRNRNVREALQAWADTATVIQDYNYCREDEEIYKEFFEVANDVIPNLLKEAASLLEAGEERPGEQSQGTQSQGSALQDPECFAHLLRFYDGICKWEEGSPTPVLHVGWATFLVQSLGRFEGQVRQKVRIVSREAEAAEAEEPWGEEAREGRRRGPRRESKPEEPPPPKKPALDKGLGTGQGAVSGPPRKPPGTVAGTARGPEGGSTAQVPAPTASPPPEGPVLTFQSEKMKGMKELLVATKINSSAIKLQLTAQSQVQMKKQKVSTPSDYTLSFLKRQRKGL
Procedure: as §1

[3] = biological target: T3, StrepII-Avi-TEV-Menin T349M (recombinant mutant human Menin) (human, UniProt O00255 1-610)
T3 construct: The mutant plasmid was made from the wild-type StrepII-Avi-TEV Menin construct; also called T349M-mutant Menin; T349M Menin
T3 sequence: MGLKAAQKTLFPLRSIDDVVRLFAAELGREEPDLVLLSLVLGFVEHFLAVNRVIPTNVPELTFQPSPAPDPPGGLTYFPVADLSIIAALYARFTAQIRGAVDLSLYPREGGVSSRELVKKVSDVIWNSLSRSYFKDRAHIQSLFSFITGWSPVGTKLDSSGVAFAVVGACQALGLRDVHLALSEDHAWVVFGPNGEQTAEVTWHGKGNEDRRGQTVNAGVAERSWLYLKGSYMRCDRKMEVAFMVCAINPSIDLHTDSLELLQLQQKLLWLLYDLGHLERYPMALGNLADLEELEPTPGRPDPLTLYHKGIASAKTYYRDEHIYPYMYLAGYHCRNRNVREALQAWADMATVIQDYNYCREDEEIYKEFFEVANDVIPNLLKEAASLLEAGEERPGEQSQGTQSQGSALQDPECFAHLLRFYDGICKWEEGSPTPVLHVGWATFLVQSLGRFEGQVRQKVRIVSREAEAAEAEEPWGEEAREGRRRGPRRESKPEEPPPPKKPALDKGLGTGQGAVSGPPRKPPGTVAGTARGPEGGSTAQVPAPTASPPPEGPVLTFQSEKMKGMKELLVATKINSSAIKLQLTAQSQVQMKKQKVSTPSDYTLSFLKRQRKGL
Procedure: as §1

B1: N-terminal FITC-conjugated MLL1 4-43(C-A) peptide probe (peptide)
peptide: {FITC}-SARWRFPARPGTTGGGGGGGRRGLGGAPRQRVPALLLPPGY
modifications: not fully specified
notes: also called FITC-MLL14-43(C-A) peptide; MLL1 peptide
Question: For B1, which Kd [1] is on record?
Answer: 910 pM

Question: What about the Kd [2] of the same binder?
Answer: 760 pM

Question: What about the Kd [3] of the same binder?
Answer: 2990 pM
